Assay results as given in US20110105397A1, “METHOD FOR TREATING HEART FAILURE WITH STRESSCOPIN-LIKE PEPTIDES” (priority 2009, published 2011).
Where no end group is shown, it is not given here. The star is where a group is joined. Succinimide(1-Et,3-yl) = CCN1C(=O)CC(*)C1=O

T1: human corticotrophin releasing hormone receptor type 2 (CRHR2) (human, UniProt Q13324 1-411)
T1 sequence (looked up): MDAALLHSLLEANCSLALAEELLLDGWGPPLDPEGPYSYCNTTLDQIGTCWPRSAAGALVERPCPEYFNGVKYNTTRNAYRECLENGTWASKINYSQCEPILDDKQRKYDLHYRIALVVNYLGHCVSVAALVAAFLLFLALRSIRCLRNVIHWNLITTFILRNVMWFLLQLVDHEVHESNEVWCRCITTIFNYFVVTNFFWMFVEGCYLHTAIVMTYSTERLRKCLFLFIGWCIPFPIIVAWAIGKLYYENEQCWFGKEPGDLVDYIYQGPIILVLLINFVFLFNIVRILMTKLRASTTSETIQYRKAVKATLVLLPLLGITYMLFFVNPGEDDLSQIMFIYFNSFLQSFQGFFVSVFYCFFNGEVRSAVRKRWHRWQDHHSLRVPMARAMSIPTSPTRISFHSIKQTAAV


Biological target: T1, human corticotrophin releasing hormone …
Assay: cell-based or functional assay

Log DR | pA50 | Binder
-0.01 log10 | 9.48 -log10(M) | TKFTLSLDVPTNIMNLLFNIAKAC(Succinimide(1-Et,3-yl))NLRAQAAANAHLMAQI-NH2 (N-terminus assumed; SMILES CC[C@H](C)[C@H](NC(=O)[C@H](CCC(N)=O)NC(=O)[C@H](C)NC(=O)[C@H](CCSC)NC(=O)[C@H](CC(C)C)NC(=O)[C@H](Cc1c[nH]cn1)NC(=O)[C@H](C)NC(=O)[C@H](CC(N)=O)NC(=O)[C@H](C)NC(=O)[C@H](C)NC(=O)[C@H](C)NC(=O)[C@H](CCC(N)=O)NC(=O)[C@H](C)NC(=O)[C@H](CCCNC(=N)N)NC(=O)[C@H](CC(C)C)NC(=O)[C@H](CC(N)=O)NC(=O)[C@H](CSC1CC(=O)N(CC)C1=O)NC(=O)[C@H](C)NC(=O)[C@H](CCCCN)NC(=O)[C@H](C)NC(=O)[C@@H](NC(=O)[C@H](CC(N)=O)NC(=O)[C@H](Cc1ccccc1)NC(=O)[C@H](CC(C)C)NC(=O)[C@H](CC(C)C)NC(=O)[C@H](CC(N)=O)NC(=O)[C@H](CCSC)NC(=O)[C@@H](NC(=O)[C@H](CC(N)=O)NC(=O)[C@@H](NC(=O)[C@@H]1CCCN1C(=O)[C@@H](NC(=O)[C@H](CC(=O)O)NC(=O)[C@H](CC(C)C)NC(=O)[C@H](CO)NC(=O)[C@H](CC(C)C)NC(=O)[C@@H](NC(=O)[C@H](Cc1ccccc1)NC(=O)[C@H](CCCCN)NC(=O)[C@@H](N)[C@@H](C)O)[C@@H](C)O)C(C)C)[C@@H](C)O)[C@@H](C)CC)[C@@H](C)CC)C(N)=O) [Cys-variant of stresscopin peptide with N-Ethylsuccinimide (NES) reactive group SEQ ID NO: 50]
0.11 log10 | 9.36 -log10(M) | TKFTLSLDVPTNIMNLLFNIAKAKC(Succinimide(1-Et,3-yl))LRAQAAANAHLMAQI-NH2 (N-terminus assumed; SMILES CC[C@H](C)[C@H](NC(=O)[C@H](CCC(N)=O)NC(=O)[C@H](C)NC(=O)[C@H](CCSC)NC(=O)[C@H](CC(C)C)NC(=O)[C@H](Cc1c[nH]cn1)NC(=O)[C@H](C)NC(=O)[C@H](CC(N)=O)NC(=O)[C@H](C)NC(=O)[C@H](C)NC(=O)[C@H](C)NC(=O)[C@H](CCC(N)=O)NC(=O)[C@H](C)NC(=O)[C@H](CCCNC(=N)N)NC(=O)[C@H](CC(C)C)NC(=O)[C@H](CSC1CC(=O)N(CC)C1=O)NC(=O)[C@H](CCCCN)NC(=O)[C@H](C)NC(=O)[C@H](CCCCN)NC(=O)[C@H](C)NC(=O)[C@@H](NC(=O)[C@H](CC(N)=O)NC(=O)[C@H](Cc1ccccc1)NC(=O)[C@H](CC(C)C)NC(=O)[C@H](CC(C)C)NC(=O)[C@H](CC(N)=O)NC(=O)[C@H](CCSC)NC(=O)[C@@H](NC(=O)[C@H](CC(N)=O)NC(=O)[C@@H](NC(=O)[C@@H]1CCCN1C(=O)[C@@H](NC(=O)[C@H](CC(=O)O)NC(=O)[C@H](CC(C)C)NC(=O)[C@H](CO)NC(=O)[C@H](CC(C)C)NC(=O)[C@@H](NC(=O)[C@H](Cc1ccccc1)NC(=O)[C@H](CCCCN)NC(=O)[C@@H](N)[C@@H](C)O)[C@@H](C)O)C(C)C)[C@@H](C)O)[C@@H](C)CC)[C@@H](C)CC)C(N)=O) [Cys-variant of stresscopin peptide with N-Ethylsuccinimide (NES) reactive group SEQ ID NO: 49]
0.05 log10 | 9.42 -log10(M) | TKFTLSLDVPTNIMNLLFC(Succinimide(1-Et,3-yl))IAKAKNLRAQAAANAHLMAQI-NH2 (N-terminus assumed; SMILES CC[C@H](C)[C@H](NC(=O)[C@H](CCC(N)=O)NC(=O)[C@H](C)NC(=O)[C@H](CCSC)NC(=O)[C@H](CC(C)C)NC(=O)[C@H](Cc1c[nH]cn1)NC(=O)[C@H](C)NC(=O)[C@H](CC(N)=O)NC(=O)[C@H](C)NC(=O)[C@H](C)NC(=O)[C@H](C)NC(=O)[C@H](CCC(N)=O)NC(=O)[C@H](C)NC(=O)[C@H](CCCNC(=N)N)NC(=O)[C@H](CC(C)C)NC(=O)[C@H](CC(N)=O)NC(=O)[C@H](CCCCN)NC(=O)[C@H](C)NC(=O)[C@H](CCCCN)NC(=O)[C@H](C)NC(=O)[C@@H](NC(=O)[C@H](CSC1CC(=O)N(CC)C1=O)NC(=O)[C@H](Cc1ccccc1)NC(=O)[C@H](CC(C)C)NC(=O)[C@H](CC(C)C)NC(=O)[C@H](CC(N)=O)NC(=O)[C@H](CCSC)NC(=O)[C@@H](NC(=O)[C@H](CC(N)=O)NC(=O)[C@@H](NC(=O)[C@@H]1CCCN1C(=O)[C@@H](NC(=O)[C@H](CC(=O)O)NC(=O)[C@H](CC(C)C)NC(=O)[C@H](CO)NC(=O)[C@H](CC(C)C)NC(=O)[C@@H](NC(=O)[C@H](Cc1ccccc1)NC(=O)[C@H](CCCCN)NC(=O)[C@@H](N)[C@@H](C)O)[C@@H](C)O)C(C)C)[C@@H](C)O)[C@@H](C)CC)[C@@H](C)CC)C(N)=O) [Cys-variant of stresscopin peptide with N-Ethylsuccinimide (NES) reactive group SEQ ID NO: 52]
-0.03 log10 | 9.5 -log10(M) | TKFTLSLDVPTNIMNLLFNIAKAKNLRC(Succinimide(1-Et,3-yl))QAAANAHLMAQI-NH2 (N-terminus assumed; SMILES CC[C@H](C)[C@H](NC(=O)[C@H](CCC(N)=O)NC(=O)[C@H](C)NC(=O)[C@H](CCSC)NC(=O)[C@H](CC(C)C)NC(=O)[C@H](Cc1c[nH]cn1)NC(=O)[C@H](C)NC(=O)[C@H](CC(N)=O)NC(=O)[C@H](C)NC(=O)[C@H](C)NC(=O)[C@H](C)NC(=O)[C@H](CCC(N)=O)NC(=O)[C@H](CSC1CC(=O)N(CC)C1=O)NC(=O)[C@H](CCCNC(=N)N)NC(=O)[C@H](CC(C)C)NC(=O)[C@H](CC(N)=O)NC(=O)[C@H](CCCCN)NC(=O)[C@H](C)NC(=O)[C@H](CCCCN)NC(=O)[C@H](C)NC(=O)[C@@H](NC(=O)[C@H](CC(N)=O)NC(=O)[C@H](Cc1ccccc1)NC(=O)[C@H](CC(C)C)NC(=O)[C@H](CC(C)C)NC(=O)[C@H](CC(N)=O)NC(=O)[C@H](CCSC)NC(=O)[C@@H](NC(=O)[C@H](CC(N)=O)NC(=O)[C@@H](NC(=O)[C@@H]1CCCN1C(=O)[C@@H](NC(=O)[C@H](CC(=O)O)NC(=O)[C@H](CC(C)C)NC(=O)[C@H](CO)NC(=O)[C@H](CC(C)C)NC(=O)[C@@H](NC(=O)[C@H](Cc1ccccc1)NC(=O)[C@H](CCCCN)NC(=O)[C@@H](N)[C@@H](C)O)[C@@H](C)O)C(C)C)[C@@H](C)O)[C@@H](C)CC)[C@@H](C)CC)C(N)=O) [Cys-variant of stresscopin peptide with N-Ethylsuccinimide (NES) reactive group SEQ ID NO: 47]
0.68 log10 | 8.79 -log10(M) | TKFTLSLDVPTNIMNLLFNC(Succinimide(1-Et,3-yl))AKAKNLRAQAAANAHLMAQI-NH2 (N-terminus assumed; SMILES CC[C@H](C)[C@H](NC(=O)[C@H](CCC(N)=O)NC(=O)[C@H](C)NC(=O)[C@H](CCSC)NC(=O)[C@H](CC(C)C)NC(=O)[C@H](Cc1c[nH]cn1)NC(=O)[C@H](C)NC(=O)[C@H](CC(N)=O)NC(=O)[C@H](C)NC(=O)[C@H](C)NC(=O)[C@H](C)NC(=O)[C@H](CCC(N)=O)NC(=O)[C@H](C)NC(=O)[C@H](CCCNC(=N)N)NC(=O)[C@H](CC(C)C)NC(=O)[C@H](CC(N)=O)NC(=O)[C@H](CCCCN)NC(=O)[C@H](C)NC(=O)[C@H](CCCCN)NC(=O)[C@H](C)NC(=O)[C@H](CSC1CC(=O)N(CC)C1=O)NC(=O)[C@H](CC(N)=O)NC(=O)[C@H](Cc1ccccc1)NC(=O)[C@H](CC(C)C)NC(=O)[C@H](CC(C)C)NC(=O)[C@H](CC(N)=O)NC(=O)[C@H](CCSC)NC(=O)[C@@H](NC(=O)[C@H](CC(N)=O)NC(=O)[C@@H](NC(=O)[C@@H]1CCCN1C(=O)[C@@H](NC(=O)[C@H](CC(=O)O)NC(=O)[C@H](CC(C)C)NC(=O)[C@H](CO)NC(=O)[C@H](CC(C)C)NC(=O)[C@@H](NC(=O)[C@H](Cc1ccccc1)NC(=O)[C@H](CCCCN)NC(=O)[C@@H](N)[C@@H](C)O)[C@@H](C)O)C(C)C)[C@@H](C)O)[C@@H](C)CC)C(N)=O) [Cys-variant of stresscopin peptide with N-Ethylsuccinimide (NES) reactive group SEQ ID NO: 51]
0.03 log10 | 9.44 -log10(M) | TKFTLSLDVPTNIMNLLFNIAKAKNC(Succinimide(1-Et,3-yl))RAQAAANAHLMAQI-NH2 (N-terminus assumed; SMILES CC[C@H](C)[C@H](NC(=O)[C@H](CCC(N)=O)NC(=O)[C@H](C)NC(=O)[C@H](CCSC)NC(=O)[C@H](CC(C)C)NC(=O)[C@H](Cc1c[nH]cn1)NC(=O)[C@H](C)NC(=O)[C@H](CC(N)=O)NC(=O)[C@H](C)NC(=O)[C@H](C)NC(=O)[C@H](C)NC(=O)[C@H](CCC(N)=O)NC(=O)[C@H](C)NC(=O)[C@H](CCCNC(=N)N)NC(=O)[C@H](CSC1CC(=O)N(CC)C1=O)NC(=O)[C@H](CC(N)=O)NC(=O)[C@H](CCCCN)NC(=O)[C@H](C)NC(=O)[C@H](CCCCN)NC(=O)[C@H](C)NC(=O)[C@@H](NC(=O)[C@H](CC(N)=O)NC(=O)[C@H](Cc1ccccc1)NC(=O)[C@H](CC(C)C)NC(=O)[C@H](CC(C)C)NC(=O)[C@H](CC(N)=O)NC(=O)[C@H](CCSC)NC(=O)[C@@H](NC(=O)[C@H](CC(N)=O)NC(=O)[C@@H](NC(=O)[C@@H]1CCCN1C(=O)[C@@H](NC(=O)[C@H](CC(=O)O)NC(=O)[C@H](CC(C)C)NC(=O)[C@H](CO)NC(=O)[C@H](CC(C)C)NC(=O)[C@@H](NC(=O)[C@H](Cc1ccccc1)NC(=O)[C@H](CCCCN)NC(=O)[C@@H](N)[C@@H](C)O)[C@@H](C)O)C(C)C)[C@@H](C)O)[C@@H](C)CC)[C@@H](C)CC)C(N)=O) [Cys-variant of stresscopin peptide with N-Ethylsuccinimide (NES) reactive group SEQ ID NO: 48]
1.9 log10 | 7.84 -log10(M) | TKFTLSLDVPTNIMNLLFNIAKAKNLRCQAAANAHLMAQI (NES-PEG MW80000 & BRANCHED on Cys 28; C-terminal amide (-NH2)) [Pegylated Cys-variant stresscopin-like peptide, NES-PEG MW80000 & BRANCHED, SEQ ID NO: 101]
